Broadly, the Kd is the equilibrium constant for the complex coming apart. A word on the koff: it is a measure of how fast the partners let go of each other. As a reminder, the kon is the second-order rate constant of association.

In experiment [1] the target is RhoB GTPase, recombinant (full length RhoB with the C-terminal CKVL motif deleted, six-HIS tag, expressed in E. coli) (UniProt P62745). In words: BLI (BLItz), RhoB immobilised on Ni-NTA biosensor, B30.2 domain in solution, 1:1 fit, no pAg.
For experiment [2] the target is unchanged. In words: BLI (BLItz), RhoB immobilised on Ni-NTA biosensor, B30.2 domain in solution, 1:1 fit, no pAg; kd(1/Ms) [sic].
Experiment [3] has the same target. In words: BLI (BLItz), RhoB immobilised on Ni-NTA biosensor, BFI in solution with the phosphoantigen cHDMAPP at 1:1; kd(1/Ms) [sic].
The target is the same in experiment [4]. In words: BLI (BLItz), RhoB immobilised on Ni-NTA biosensor, BFI in solution, 1:1 fit, no pAg; kd(1/Ms) [sic].
The target is the same in experiment [5]. In words: BLI (BLItz), RhoB immobilised on Ni-NTA biosensor, BFI in solution with the phosphoantigen cHDMAPP at 1:1.
Experiment [6] has the same target. In words: BLI (BLItz), RhoB immobilised on Ni-NTA biosensor, BFI in solution, 1:1 fit, no pAg.

As for “BTN3A1 (CD277) B30.2 domain, recombinant (from UniProt O00481 328-513) (receptor)”, in experiment [1], the Kd turned out to be 102 µM and the koff turned out to be 0.206 s⁻¹. In addition, the kon in experiment [2] came out at 2020 M⁻¹ s⁻¹.
Take “BTN3A1 (CD277) full-length intracellular domain, recombinant (from UniProt O00481 272-513) (receptor)”: the kon is 172 M⁻¹ s⁻¹ in experiment [3] and 2200 M⁻¹ s⁻¹ in experiment [4]. Moreover, the Kd in experiment [5] turned out to be 666 µM; in experiment [6], 19.7 µM. For the same substance, the koff came to 0.115 s⁻¹ in experiment [5] and 0.0435 s⁻¹ in experiment [6].
